Reference: patent US20200223910A1 (STERLING IP, published 2020)
Substitutions are numbered along the chain they refer to. Names and notes keep the numbering of the source.

T1: mouse TNC rCd4-His-FBG (rat; mouse, UniProt P05540 209-391; Q80YX1 1883-2110, limits assumed)
T1 construct: domain: domains 3 and 4;domain: FBG; Biotinylated in the capture ELISA; also called Mu TNC; mTNC; not shown: 6His tag
T1 sequence (chain (part 1 of 2), looked up): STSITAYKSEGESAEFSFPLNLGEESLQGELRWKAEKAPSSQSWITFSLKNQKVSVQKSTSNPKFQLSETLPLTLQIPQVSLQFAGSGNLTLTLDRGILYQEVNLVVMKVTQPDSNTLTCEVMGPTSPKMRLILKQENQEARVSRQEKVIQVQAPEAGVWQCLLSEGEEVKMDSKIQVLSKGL
T1 sequence (chain (part 2 of 2), looked up): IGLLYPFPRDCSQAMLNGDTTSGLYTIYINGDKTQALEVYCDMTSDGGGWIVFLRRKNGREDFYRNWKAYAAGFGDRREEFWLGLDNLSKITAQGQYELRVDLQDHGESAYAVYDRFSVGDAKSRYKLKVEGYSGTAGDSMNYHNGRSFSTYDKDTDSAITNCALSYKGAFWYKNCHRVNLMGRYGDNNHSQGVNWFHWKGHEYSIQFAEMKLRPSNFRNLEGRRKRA

T2: human TNR rCd4-His-FBG (rat; human, UniProt P05540 209-391; Q92752 1128-1358, limits assumed)
T2 construct: domain: domains 3 and 4;domain: FBG; also called Hu TNR; hTNR; not shown: 6His tag
T2 sequence (chain (part 1 of 2), looked up): T1 sequence (chain (part 1 of 2), looked up)
T2 sequence (chain (part 2 of 2), looked up): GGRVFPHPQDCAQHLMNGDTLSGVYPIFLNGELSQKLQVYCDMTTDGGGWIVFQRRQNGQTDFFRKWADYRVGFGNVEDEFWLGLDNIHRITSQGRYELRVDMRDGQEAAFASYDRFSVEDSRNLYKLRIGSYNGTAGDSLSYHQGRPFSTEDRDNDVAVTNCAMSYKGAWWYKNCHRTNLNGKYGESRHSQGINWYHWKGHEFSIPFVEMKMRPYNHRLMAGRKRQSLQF

T3: human TNC rCd4-His-FBG (rat; human, UniProt P05540 209-391; P24821 1974-2201, limits assumed)
T3 construct: domain: domains 3 and 4;domain: FBG; C-terminal FBG fusion made in HEK293F cells; biotinylated in the ELISA and HTRF assays; also called Hu TNC; hTNC; not shown: 6His tag
T3 sequence (chain (part 1 of 2), looked up): T1 sequence (chain (part 1 of 2), looked up)
T3 sequence (chain (part 2 of 2), looked up): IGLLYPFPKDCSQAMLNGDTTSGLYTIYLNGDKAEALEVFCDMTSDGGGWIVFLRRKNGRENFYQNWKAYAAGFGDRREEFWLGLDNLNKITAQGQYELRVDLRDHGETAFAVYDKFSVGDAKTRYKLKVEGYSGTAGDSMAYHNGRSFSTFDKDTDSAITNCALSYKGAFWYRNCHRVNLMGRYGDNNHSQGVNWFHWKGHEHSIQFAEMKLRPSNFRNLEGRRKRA

B1: IgG4 165_13_C3* (antibody, V domains shown)
VH: QVQLVESGGGLVQPGRSLRLSCAASGFTFDDYAMHWVRQAPGKGLEWVSGISGSGGSTYYADSVKGRFTISRDNAKNSLYLQMNSLRAEDTALYYCAKSYQSDEDAFDIWGQGTMVTVSS
VL: DIQMTQSPSSLSASVGDRVTITCRASQYIQGFLNWYQQKPGKAPKLLIYDASNLETGVPSRFSGSGSGTDFTLTISSLQPEDFATYYCQQSYSTPQTFGQGTKVDIKR
notes: Hinge-modified IgG4 (S241P); neither is tied by name to C3* as tested; also called NSCT-141
B2: 165_13_D1 scFv (scFv, V domains shown)
VH: B1 VH with S99G, Y100T, Q101R, S102G, D103E, E104G, A106T
VL: B1 VL with S9A, S12P, A13T, S14P
notes: scFv in E. coli supernatant
B3: 165_13_A4 scFv (scFv, V domains shown)
VH: B1 VH with S99D, Y100K, Q101Y, S102P, D103V, E104L, A106T
VL: B1 VL with S9A, S12P, A13T, S14P
notes: scFv in E. coli supernatant
B4: 165_13_B1 scFv (scFv, V domains shown)
VH: B1 VH with S99V, Y100M, Q101S, D103M
VL: B1 VL with S9A, S12P, A13T, S14P
notes: scFv in E. coli supernatant (pSANG10, FLAG-tagged)
B5: 165_13_B3 scFv (scFv, V domains shown)
VH: B1 VH with S99A, Y100L, Q101A, S102R, D103G, E104H, A106T
VL: B1 VL with S9A, S12P, A13T, S14P
notes: scFv in E. coli supernatant
B6: 165_13_B6 scFv (scFv, V domains shown)
VH: B1 VH with S99G, Y100Q, Q101K, S102G, D103E, E104G, A106T
VL: B1 VL with S9A, S12P, A13T, S14P
notes: scFv in E. coli supernatant
B7: 165_13_C3 scFv (scFv, V domains shown)
VH: B1 VH
VL: B1 VL with S9A, S12P, A13T, S14P
notes: scFv in E. coli supernatant
B8: 165_13_D4 scFv (scFv, V domains shown)
VH: B1 VH with S99G, Y100T, Q101V, S102G, D103E, E104G, A106T
VL: B1 VL with S9A, S12P, A13T, S14P
notes: scFv in E. coli supernatant
B9: 165_13_E1 scFv (scFv, V domains shown)
VH: B1 VH with S99D, Y100I, Q101S, S102A, D103V, E104M, A106V, F107P, D108Q, I109T
VL: B1 VL with S9A, S12P, A13T, S14P
notes: scFv in E. coli supernatant
B10: 180_11_F5 scFv (scFv, V domains shown)
VH: B1 VH with S99V, Y100M, Q101R, S102T, D103G, E104L, A106T
VL: B1 VL with S9A, S12P, A13T, S14P
notes: scFv in E. coli supernatant

Experiments:
[1] = target: T1, mouse TNC rCd4-His-FBG; assay: SPR BIAcore T200, 37 C, IgG4 captured on anti-human Fc, rCd4-His-FBG injected, 1:1 fit; relative to theoretical Rmax
Experimental: (§1) For the kinetic assay ˜1,500-1,900 response units (RU) of anti-human Fc IgG (GE, BR-1008-39) was immobilised in all flow-cells (FC1-4) on a Series S CM5 sensor chip (BR-1005-30) using EDC/NHS cross-linking chemistry according to the amine coupling kit protocol (GE, BR-1000-50). […] Antibody capture levels ranged typically from 70 RU (for TNR interactions) to 90 RU (for TNC interactions).
(§2) A 1:1 dilution series of antigen in HBS-P+ (30 nM of human and mouse TNC rCd4-His-FBG and 480 nM of human TNR rCd4-His-FBG) was injected with a flow-path via the reference flow cell (FC1 and FC3, respectively) and the antibody capture flow cell (FC2 and FC4, respectively) with a flow rate of 30 μl/min. The association and dissociation phases were measured over a 3.5 and 30 min time period, respectively, for human and mouse TNC rCd4-His-FBG, and 2 and 8 min time period for human TNR rCd4-His-FBG. For interaction analysis with human and mouse TNC rCD4-His-FBG regeneration of free capture antibody surfaces after each antigen injection was done by injection of 3 M MgCl 2 for 60 s and for each sample injection a fresh NSCT antibody was captured. Carry over of antigen was prohibited by an extra needle wash step with 50% DMSO before every injection. Runs were performed at the more physiologically relevant temperature of 37° C.
(§3) Kinetic parameters were determined by reference cell subtraction and fitting the sensorgram experimental data to a 1:1 interaction model using the BIAcore T200 Evaluation software version 2.0.

[2] = target: T2, human TNR rCd4-His-FBG; assay: as above
Experimental: as §1, §2, §3

[3] = target: T3, human TNC rCd4-His-FBG; assay: as above
Experimental: as §1, §2, §3

[4] = target: T1, mouse TNC rCd4-His-FBG; assay: SPR BIAcore T200, 37 C, IgG4 captured on anti-human Fc, rCd4-His-FBG injected, 1:1 fit
Experimental: as §1, §2, §3

[5] = target: T2, human TNR rCd4-His-FBG; assay: as above
Experimental: as §1, §2, §3

[6] = target: T3, human TNC rCd4-His-FBG; assay: as above
Experimental: as §1, §2, §3

[7] = target: T1, mouse TNC rCd4-His-FBG; assay: anti-FLAG capture DELFIA ELISA, scFv supernatant, biotinylated mouse rCd4-His-FBG
Experimental: E. coli clones harbouring scFv pSANG10 expression plasmids were induced in 96-well plates with auto-induction media as described previously (Schofield et al, 2007). E. coli supernatants were harvested for ELISA assays. ELISA used the DELFIA (dissociation enhanced lanthanide fluorescent immunoassay) system with Europium-labelled anti-FLAG antibody (Sigma, Aldrich, UK). Black immunosorb plates (Nunc) were coated overnight with anti-FLAG M2 antibody (Sigma, F3165, 5 μg/ml in PBS, 50 μl per well), in wells blocked by the addition of 2% milk powder, PBS (PBS-M, 300 μl per well). Plates were washed three times with PBS-T (PBS, 0.1% Tween-20) and three times with PBS followed by the addition of a 1:2 dilution of 96-well auto-induction culture supernatants containing expressed scFv in PBS-M (50 μl per well). The plates were incubated for 1 h, washed as above and biotinylated mouse or human rCd4-His-FBG ([…] in PBS-M, 50 μl) added to each well. Plates were incubated for a further 1 h, washed and Strepravidin-Eu added (Perkin Elmer, 1 μg/ml, PBS-M, 50 μl), incubated for 30 min, washed and DELFIA enhancement solution added (50 μl) and plates read on a Perkin Elmer Fusion plate reader (excitation=320 nm, emission 620 nm).

[8] = target: T3, human TNC rCd4-His-FBG; assay: HTRF competition, scFv supernatant; competitor d2-labelled B12 IgG
Experimental: IgG antibodies were labelled using the d2 labelling kit (CisBio, 62D2DPEA) as directed by the manufacturer. Streptavidin europium cryptate (CisBio, 610SAKLA, Lot#25C) was used at a final concentration of 1.8 ng active moiety (SA) per 20 μl reaction as recommended by the manufacturer. Biotinylated rCd4-His-FBG was prepared using EZ-link Sulfo-NHS-LC-Biotin reagent (Thermo Scientific, 21327) the extent of biotinylation was quantified using biotinylation fluorescence quantitation kit (Thermo Scientific, 46610). Where appropriate, supernatants containing scFv (prepared as described above for ELISA assays) were added to the 384-well assay plate at a final dilution of 1/20 (i.e. ⅕ dilution in assay buffer followed by addition of 5 μl diluted sample to the 20 μl FRET assay). The concentrations of d2-labelled B12 IgG used for screening were 1.25 nM. Unless otherwise stated, biotinylated rCd4-His-FBG (biotin:protein ratio=1.8:1) was present at either 2.2 nM (in assays using the 2A5 IgG antibody) or 1 nM (in experiments using B12 IgG). Samples were incubated for approximately 1 h at room temperature and the FRET signal was determined using a BMG Pherastar instrument: excitation=320 nm; emission=620 nm and 665 nm; integration start time=60 μs; integration time=500 μs; 100 flashes per well. For competition assays containing culture supernatant, biotinylated rCd4-His-FBG antigen was pre-incubated with streptavidin europium cryptate for 45 min prior to addition of reagents to the assay plate. All FRET signals are presented as ΔR, where R =(E665/E620×104) and ΔR =(Rsample-Rbackground fluorescence).
Culture supernatants containing unlabelled scFv clones from affinity selected mutant libraries were tested for inhibition of the interaction between FBG and the fluorophore-labelled parental IgG antibody. […] The parental clones, expressed as scFvs in parallel with the affinity matured clones, were used as benchmarks.

Row | Binder | fold improvement for mouse FBG binding against parent B12 [7] [fold] | % inhibition of HTRF signal [8] [%] | further results
1 | B1 |  |  | SA, surface activity [1]: 304%; SA, surface activity [2]: 233%; SA, surface activity [3]: 297%; Kd [4]: 0.67 nM; koff [4]: 0.0042 s⁻¹; kon [4]: 6.28e+06 M⁻¹ s⁻¹; Kd [5]: 53.1 nM; koff [5]: 0.058 s⁻¹; kon [5]: 1.11e+06 M⁻¹ s⁻¹; Kd [6]: 0.443 nM; koff [6]: 0.0041 s⁻¹; kon [6]: 9.35e+06 M⁻¹ s⁻¹
2 | B2 | ≥ 4 |  | 
3 | B3 | ≥ 4 | ≥ 91 | 
4 | B4 | ≥ 4 |  | 
5 | B5 | ≥ 4 | ≥ 91 | 
6 | B6 | ≥ 4 |  | 
7 | B7 | ≥ 4 | ≥ 91 | 
8 | B8 | ≥ 4 | ≥ 91 | 
9 | B9 | ≥ 4 | ≥ 91 | 
10 | B10 | ≥ 4 | ≥ 91 | 
